This series can be described thus: label from the status in PepcDB records.
“MSLTRTQPVELVTMVMVTDPETQRVLVEDKVNVPWKAGHSFPGGHVEVGEPCATAAIREVFEETGLRLSGVTFCGTCEWFDDDRQHRKLGLLYRASNFTGTLKASAEGQLSWLPITALTRENSAASLPEFLQVFTGTASTLVSDSWNGNLRIDEGHHHHHH”: the protein production result is recorded as “not failed”.

For the sequence “MIHQIESVQAGKKIYFLSDFHLGVPSDEESWKREKKIIRFLDSITPAAQAVFLLGDIFDFWFEYKHVIPKGFARLQGKIAQLTDSGIPVYLYTGNHDLWMFGYLEKELGVTVFHKPIDWEIAGKKFLIGHGDGLGPGDFVYKCTKKVFVNPFFQWVFKMTPPAIGMGIAKFWSGKSRQHNTDDRFFEEKEFLWQYCKEQNVLKHRSYYIFGHRHMPLDLPVGDSARYVNIGDWIKFDTFAEFDGNELKLISWKETSEPYSL”, the protein production result was “failed”.

As for “RYGGDSTMIEMAFNKILIYAFGQFSAYSVWFDNNYLNIVDTIPGYGVFTGVVSKIFDFDRVSGFYDSFTYISNEDYTNVFTLSR”, the protein production entry is given as “failed”.

As for “MACFMALVLARFGFGFCMLLAALVLLAAATLLATRLVGWAVRAFALERSQALASGVAIFILVALALWGCHAVGEVLYGAIGATALVGGAPHWLAGNSHVSAAALMGATTAAAMLAGGPAFWRWLRARRAAAAEQPAPRKAAPPKGAKPAARAAKAAAKTQIAPRGQRIPWLGWTAFFLLFIGAAVLAFAYIVAPIEAGASGLRLEHATRARPVYLAGLTLLGGGAFFLLAWLSRRRLPGD”, the protein production result is listed as “failed”.

Regarding “MTHRIAPRCFSTIMLLCLLYTSPLDVIAQGQGGQGDIPVVNPTAPGGSTTTPTITQPSPPSLTFPGPTTPTGGYPPLDGTTPTGGYPPLYGTTPPGGGDVGGGGGGYGGGTPGGGGGGGGDTGAGAGGGGYGGGGDTGAGGGVGSGQWCIAKANASPTSLQVALDYACGYGGADCGQIQQGAACYEPNTIRDHASFAFNSYYQKHPGSDSCNFGGAAQLTSTDPSKTS”, the protein production result was “failed”.

Take “MTARSNSSSSGTSSNKRPRTSGSSPSSKSRRGSGSGPAGRSRKTTSAVSYPTNSARRASETSEERTGSAFRAVGSGLGTLVSATAHGVGSVTRAVARTLHREHDDEEFDAVDDAFSSEETVVTNRKRKPSRMTKTKKNLFDDDIEDQHDDFDEEAGLGRFTLALSDESVDSIGLILIALAFIVGASVWFDIAGPIGAAIAAGVHFVIGAGALILPLALVAIAIALMLGKLPEPDHQPRLVLGTSVIAISMLGLIHLFAGDPADWQGRTHAGGIVGAYSGGMIARGFSVYLAIPLLVLVIIYGALRINNVTVKELFEAIQDTVQGLRDDSEDEDDPLYADADAEIEARSRGEKLHRPQPRREKPRPAPERRRMSAPLVDDVDEDVVSRPLFDDPSTAQSQKSSVETQRAARDVSETDEFPAVDEPTVVVPRKPSAPRMSLPQTPVTDVEAAADVVAAGRKAVQDAVKARESHNVGAALAPSTPAQPYEAPESHYAVPSTQLLIPGKEAKTHSEANDRMIEAISDVFAEFKVDAHVTGFSRGPTVTRYEVELGPGVKVSKITNLQSNLAYAVATDNVRLLTPIPGKSAVGIEVPNTDREMVRLGDVLNSESVHSDHDPMLIGLGKDIEGDFVAHSVQKMPHLLVAGSTGSGKSAFVNSLLVSLLTRATPEDVRLILVDPKMVELTPYEGIPHLITPIITQPKKAAAALQWLVEEMEQRYMDMKSTRVRHIKDFNRKVKSGEIQAPLGSQREYHPYPYIVCVVDELADLMMTAPKEIEDSIVRITQKARAAGIHLVLATQRPSVDVVTGLIKTNVPSRLAFATSSLTDSRVILDQAGAEKLIGMGDGLFIPQGGRPQRIQGAFVTDEEIQAVVDAAKAQGEPNYTEGVTEDKAAEAKKDIDADIGNDLEDLLQAVELVVTAQLGSTSMLQRKLRIGFAKAGRLMDLMETRGIVGPSEGSKAREVLVKPEELETTLWMIKGAKPEDAPKEDDWQSADSGVSDASDPSHGERAAYNPSSNAF”: the protein production entry is listed as “failed”.

With “MEKSKKLPFEVDRRSVYKCVQCGTCRSVCPVFDVVGWESANTRGRMLIIKSLIEGRPPSEDVLSSLASCTTCGICAAKCPAGANPPEVVEAARAQLVKCGVTTDAQLEHHHHHH”, the protein production entry is on record as “failed”.

On to “MASLQLCDGYLLFKPSVSPRFLSQRISHRLIPKASSSPPPSPSPSSSSSSLSFSRRELLYQSAAVSLSLSSIVGPARADEQLSEWERVFLPIDPGVVLLDIAFVPDEPSRGFLLGTRQTLLETKDGGSTWNPRSIPSAEEEDFNYRFNSISFKGKEGWIIGKPAILLYTADAGENWDRIPLSSQLPGDMVFIKATEDKSAEMVTDEGAIYVTSNRGYNWKAAIQETVSATLNRTVSSGISGASYYTGTFSAVNRSPDGRYVAVSSRGNFFLTWEPGQPYWQPHNRAVARRIQNMGWRADGGLWLLVRGGGLYLSKGTGITEEFEEVPVQSRGFGILDVGYRSEEEAWAAGGSGILLRTRNGGKSWNRDKAADNIAANLYAVKFVDDKKGFVLGNDGVLLRYVG”, for which the protein production entry is given as “failed”.

Take “MAIEGKTTDVANKRIRLGMVGGGSGAFIGGVHRMAARLDNRFDLVAGALSSTPEKSLASGRELGLDSERCYGSFEEMAEKEALREDGIEAVAIVTPNHVHYPAAKAFLERGIHVICDKPLTSNLEDAKKLKDVADKADALFILTHNYTGYPMVRHARELVEAGALGNIRLVQMEYPQDWLTEAVEQTGAKQAVWRTDPAQSGVGGSTGDIGTHAYNLGCFISGLEADELAADVHTFVEGRRLDDNAHVMMRFKPKGGKQPARGMLWCSQVAVGHENGLKIRLYGDKAGLEWTQADPNYLWFTKLGEPKQLITRGGAGAGAAAARVTRIPSGHPEGYLEAFATIYTEAAHAIEARRTGSALDKAVIYPTVDDGVKGVAFVTACIESGKKNGGWVKL”: the protein production entry is recorded as “failed”.

In the case of “MRVEALGKVAPLPQAQTPVSLNEASLEELMALPGIGPVLARRIVEGRPYARVEDLLKVKGIGPATLERLRPYLRP”, the protein production result is “not failed”.

Take “SLAGETINFCKGWKFHLGDAGKGASSSSYNDSQWRILNIPHDWSIEGTYKQFENGTDWQSGFLPAGISWYRKTFTIPSKWKNKKVQILFEGVYLNSEVWINGHWLGKRPNGYISFVYDLTPYLQEGKNQIAVKVDHSKALTGRWYTGSGIYRPVYLLVSNPTHIPYSGIHFRSKLQNKQSATYTLSIEIETQEKKPIKVKTYLQAPNGSIADTSEKIFVSSADSLCFLSGSIRKPLLWSPDSPNVYTLICQLTRDNKILDECRLPVGFRQLEFNPVSGFLLNGKSLKIKGVCDHHTVGAVGAAVPDDLLHYRLKLLKDMGCNAIRTSHNPFSPAFYNLCDTMGIMVLNEGLDGWNQPKAADDYGNYFDEWWQKDMTDFIKRDRNHPSIIMWSIGNEVTGATPEIQHNLVSLFHQLDPDRPVTQGGTDPTRGMKTDYQKKFNYLDIIGFNGNGEEIGELEHFHKNYPTLCAIATEVPHTYQTRGVYRSQTQWRRRDFPAPWEKGNINWEQFKHRVFPIPDLTEKECFPEESDYPYYQSSYDNASVRISARKSWQRTCSFPWLMGEFRWGSFDYLGEAEWPQRCGNFGIIDIAAIPKDAYFLYQSLWTDKPMVHLLPHWTHPGKEGKTIPVVIYTNCDAVELFINNVSLGSKPYTGEQLIWLVPYSPGKIEARGIKKGKIVATDCYQSAEAPHSVALASNKYSVKAGSDEVIRIEIDITDKNGIPCPYASNELSFHVSGPLRLLGVDNGNPTDMFPYQQPHCRCFRGKCVVLLQSDEEKGKGTLTVQGTKLVEKKLIIEVIEG”: the protein production entry is “not failed”.

With “SAAETRNVAGAEAPPPQKRYYRQRAHSNPMADHTLRYPVKPEEMDWSELYPEFFAPLTQNQSHDDPKDKKEKRAQAQVEFADIGCGYGGLLVELSPLFPDTLILGLEIRVKVSDYVQDRIRALRAAPAGGFQNIACLRSNAMKHLPNFFYKGQLTKMFFLFPDPHFKRTKHKWRIISPTLLAEYAYVLRVGGLVYTITDVLELHDWMCTHFEEHPLFERVPLEDLSEDPVVGHLGTSTEEGKKVLRNGGKNFPAIFRRIQDPVLQAVTSQTSLPGH”, the protein production entry is reported as “not failed”.

As for “MASNIILFEDIFVVDQLDPDGKKFDKVTRVQATSHNLEMFMHLDVNTEVYPLAVGDKFTLALAPTLNLDGTPDTGYFTPGAKKTLADKYEYIMHGKLYKISERDGKTPKAELYVSFGGLLMLLKGDPAHISHFELDQRLFLLMRKL”, the protein production result is on record as “failed”.

Regarding “MDRAAFPDCCVFLFGFFRRDFGAAGLYGMHDAGLLTGVQLVVAAITLTLFMLCIAQFMMTVKERGFKMALAISGFIFPSALLAGFIVNTLMTALRVKL”, the protein production result was “failed”.

Turning to “MVSFVFNGGALWSVLLLALRKRRFNVDPAMMAMTIAIYAYCAANLVASIVNSAIARDALHLIPLVTFLFFPISYSTWSITQKTTLVRIIVLSSMAACFVALLLAVFQQHWLGMRAEGGAGNAIVFAEVLCLAVLVCVAGALSDIERHRIALLCAALGGTIAIIYSGTRIVWLALLIAGIAVLLINQHRLKGRNAIRLLVLLLAAGAVIAAVGFQTISGRVDFLRSDLDALAVNGDHTTAIGLRLAVWDIGLKAFREMPLFGHGVGATQALIKQGFHDQFGMDAGFNHFHNGFLTALVQAGLLGAVTLAAMFVVAARNAAVVLRNSTDPIERFGATMIVIMVITYLTSGMTGILIGHDILDSVLMVFLVSGTYLASGRQAPLPQDQALPPETEERAPAPVAEDALLPGMENRALRLTQ”, the protein production result was “failed”.

For “PRFLFVHGWGFDRNFWEPVRRAIGQHNGDSLDFGYFGQSKLEYDWSQPFIAVGHSLGFLWLLQQPLAACIQLISINGFSRFFAGSDWPFGVPQRVTKRMQLALHRDAKKTLDQFYETVGFFDTSEKRYDLAALDNGLEFLMTQDNRSIAKKQAHKIAIMASDQDPIVPVSLTKACFPTPTPILWNKDGGHLLPITDPDSCANFIRDVVK”, the protein production result was “failed”.

As to “MSLEEVIEQLREANEPVPVPLELPDEDQLVEIEEQLFINIPFVFKEFLLTVSDVVYGSLEPVTVTDPQSHTYLPEVCATAWDLGVPRELIPICQDGEDYYCVEEDGTVLLWSAEEELVTEESWESVWHWARDVWLESEGHHHHHH”, the protein production result is on record as “not failed”.

As to “MKLSAAGVEKIKPTDKRQEIPDSLCVGLYLIVQPTGKKGWQVRYRHGGVHRRMSLGAFPVLSLAGARERARQTLAAASAGTDPAAEVKAAKAPKLDGDRDKIKTLIGQFDKRHLSKLKSGAVVRRELERHVVSAWGERDVHQIGKRDVIDLLDGIADSGRVVTANRVRAYLAKFFGWCVERDILATSPAAGVKPAGKETSRARVLTDDEIRWFWTACEAEGFPWGPFGKVLLLTGQRLNEVAQMTDSEIRGDLWHLTADRTKNGRAHDVPLTGAVRAALDEVERVTDEEGRVRFIFTTTGRTPVSGFFKARAVLAEAMVGIAQKERGEPVEIPRWTFHDLRRTAATGMARLGIPVRVTEAVLNHVSGTGGGIVAVYQRHDYADEKRQALEAWARFVLSLVEGEADNVVRLQHG”, the protein production entry is reported as “failed”.

Turning to “YISAVQAGDTESFAPLVERYSDMLYALLCRLLQDEEDAADLLQDTFVKAFRHIGRFDGRSSFSTWIYRIAYNEAIDHLRRRKAYVTDRVEELPDVPDEDLEPSGEDPELLQQALDSLPAADKALLLMFYSDDLSVRDIAEVTGMSESNVKVKLHRLRTKLYKMMR”, the protein production result was “failed”.

Regarding “LSDPNLVLFYVKNPAKSEEFYKNLLDTQPIESSPTFAMFVMKTGLRLGLWAQEEIEPKAHQTGGGMELSFQVNSNEMVDEIHRQWSDKEISIIQPPTQMDFGYTFVGVDPDEHRLRIFCLKRT”, the protein production result is “not failed”.

As to “MSKRVLMVVTNHTTITDDHKTGLWLEEFAVPYLVFQEKGYDVKVASIQGGEVPLDPRSINEKDPSWAEAEAALKHTARLSKDDAHGFDAIFLPGGHGTMFDFPDNETLQYVLQQFAEDGRIIAAVCHGPSGLVNATYKDGTPIVKGKTVTSFTDEEEREVGLDVHMPFLLESTLRLRGANFVRGGKWTDFSVRDGNLITGQNPQSSRSTAEKVVAALEERE”, the protein production result is on record as “not failed”.

For the origin of these results see a protein production outcome set (Wang et al. 2014).
